IC50 of mSOD1 mRNA downregulation, free uptake on Neuro-2a cells and Ki data for one molecule are collected here from patent US20230414780A1.

The target of assay [1] is murine TfR expressed by murine neuroblastoma Neuro-2a cells (mouse) (UniProt Q62351). Kind of assay: cell-based or functional assay.
Assay [2] has the same target. Briefly: competition with C5-Alexa680 (100 nM) on living Neuro-2a cells, 3 hrs at 37 C, flow cytometry; Ki/app, mean ± SD.

Sequence of murine TfR expressed by murine neuroblastoma Neuro-2a cells (mouse) (Q62351 whole entry): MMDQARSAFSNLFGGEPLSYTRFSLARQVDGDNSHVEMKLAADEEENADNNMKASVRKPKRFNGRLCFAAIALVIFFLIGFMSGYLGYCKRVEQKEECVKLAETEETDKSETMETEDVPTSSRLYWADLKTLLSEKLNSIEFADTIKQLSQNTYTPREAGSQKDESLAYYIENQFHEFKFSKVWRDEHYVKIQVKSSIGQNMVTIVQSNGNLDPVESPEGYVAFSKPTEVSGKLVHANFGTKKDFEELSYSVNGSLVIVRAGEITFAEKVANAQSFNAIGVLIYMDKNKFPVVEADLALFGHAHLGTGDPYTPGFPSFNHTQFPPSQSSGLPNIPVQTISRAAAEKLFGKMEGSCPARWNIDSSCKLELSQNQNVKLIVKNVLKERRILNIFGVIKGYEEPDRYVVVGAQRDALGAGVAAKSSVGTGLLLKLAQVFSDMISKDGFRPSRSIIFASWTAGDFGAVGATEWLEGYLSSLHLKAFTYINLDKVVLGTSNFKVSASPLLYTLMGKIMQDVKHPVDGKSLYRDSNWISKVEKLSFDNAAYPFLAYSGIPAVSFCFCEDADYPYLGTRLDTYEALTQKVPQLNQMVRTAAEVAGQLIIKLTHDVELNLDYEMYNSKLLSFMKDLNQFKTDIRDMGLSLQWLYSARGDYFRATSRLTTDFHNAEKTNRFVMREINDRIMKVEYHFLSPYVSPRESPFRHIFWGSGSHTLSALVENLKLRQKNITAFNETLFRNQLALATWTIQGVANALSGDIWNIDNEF

B1: C5-hFc-siSOD1m-5'VP (Fc fusion, part only; not given: Fc knob and hole arms, part only)
chain, part: EVQLVESGGGVVQPGGSLKLSCVASGTDFSINFIRWYRQAPGKQREFVAGFTATGNTNYADSMKGRFTISRDNTKNAVYLQIDSLKPEDTAVYYCYMLDKWGQGTQVTVSS
For B1, the IC50 of mSOD1 mRNA downregulation, free uptake on Neuro-2a cells in assay [1] turned out to be 8.7 nM. This molecule also gave a Ki in assay [2] of 494 nM.
